Test results: patent US20180355050A1 (Ablynx, published 2018)
Blank lines part the entries; values can stand above or below the molecule they belong to.

Legend:
[1] = molecular target: T1, human CD40L expressed on CHO cells (human, UniProt P29965 1-261); experiment: cell-based or functional assay
T1 sequence: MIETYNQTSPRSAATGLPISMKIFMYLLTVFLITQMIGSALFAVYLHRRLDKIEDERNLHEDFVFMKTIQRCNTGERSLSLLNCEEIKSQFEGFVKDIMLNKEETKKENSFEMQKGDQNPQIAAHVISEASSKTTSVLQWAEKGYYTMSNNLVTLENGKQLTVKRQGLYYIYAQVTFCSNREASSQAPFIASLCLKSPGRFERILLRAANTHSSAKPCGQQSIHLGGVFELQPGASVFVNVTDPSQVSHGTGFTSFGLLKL

[2] = molecular target: T1, human CD40L expressed on CHO cells; experiment: cell-based or functional assay; remark: listed apart in the source
[3] = molecular target: T1, human CD40L expressed on CHO cells; experiment: cell-based or functional assay; remark: listed apart in the source
[4] = molecular target: T2, rat CD40L on transiently transfected HEK cells (rat, UniProt Q9Z2V2 1-260); experiment: FACS on HEK cells transiently transfected with rat CD40L
T2 construct: whole, on cells
T2 sequence (looked up): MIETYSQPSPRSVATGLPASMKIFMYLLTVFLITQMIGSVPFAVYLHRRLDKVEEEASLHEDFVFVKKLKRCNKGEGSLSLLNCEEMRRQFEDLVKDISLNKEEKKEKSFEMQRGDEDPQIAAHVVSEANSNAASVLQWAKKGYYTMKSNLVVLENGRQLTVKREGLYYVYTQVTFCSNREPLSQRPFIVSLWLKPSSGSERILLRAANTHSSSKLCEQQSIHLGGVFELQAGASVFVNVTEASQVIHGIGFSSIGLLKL
Procedure: Cross-reactivity to rat CD40L (UniProt accession numbers: Q9Z2V2 and Q9R254 (secondary)) was tested in FACS. Purified Nanobodies were analyzed on FACS for binding to rat CD40L. 2×10⁵ cells (transiently transfected rat CD40L HEK cells) were incubated with the purified Nanobodies in FACS buffer for 30 minutes at 4° C. Cells were washed 3×, re-suspended and incubated for 30 minutes at 4° C. Cells were washed again 3× and dead cells were stained with TOPRO3 (Molecular probes, T3605). Samples were analyzed on a FACSarray™ (BD Biosciences).

[5] = molecular target: T3, recombinant human CD40L (human, UniProt P29965 108-261, limits assumed); experiment: FACS ligand competition, biotinylated human CD40L on cyno CD40 HEK cells
T3 construct: Bought soluble recombinant protein (R&D, HEK, 6420-CL/CF); also called hCD40L; human CD40L (HEK, R&D)
T3 sequence: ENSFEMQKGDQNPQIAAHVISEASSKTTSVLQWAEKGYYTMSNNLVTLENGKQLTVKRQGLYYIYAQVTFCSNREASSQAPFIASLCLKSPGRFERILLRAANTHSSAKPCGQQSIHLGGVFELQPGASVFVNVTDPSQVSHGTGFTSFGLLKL
Procedure: Cross-reactivity to cynomolgus CD40L (UniProt accession number: G7PG38) and rhesus CD40L (UniProt accession number: G7N4M5) was tested in a ligand competition assay. […] 2×10⁵ cells (transiently transfected HEK cells) were incubated with dilution series of the purified Nanobodies in FACS buffer for 30 minutes at 4° C. Cells were then washed 3× and finally resuspended in FACS buffer containing Streptavidin-PE (BD Pharmingen, #554061). This mixture was incubated for 30 minutes at 4° C. Cells were further handled as set out above.

[6] = molecular target: T3, recombinant human CD40L; experiment: FACS ligand competition, biotinylated human CD40L on human CD40 HEK cells
[7] = molecular target: T3, recombinant human CD40L; experiment: FACS ligand competition, biotinylated human CD40L on rhesus CD40 HEK cells
[8] = molecular target: human TNFα (human, UniProt P01375 77-233); experiment: competition ELISA on coated human CD40L, fixed Nanobody, dilution series of competitor
Description: (§1) The Basic Local Alignment Search Tool (BLAST) was used to identify the closest related protein in the human protein database. […] A fixed concentration of Nanobody was used together with a dilution series of competitor (TNFα, HVEM-L (TNF14) and hRANKL (TN F11); CD40L was used as positive control), starting at a 100-fold excess. The Nano bodies were detected with anti-FLAG-HRP (Sigma (A8592)).

[9] = molecular target: HVEM-L (TNF14) (human, UniProt O43557 74-240, limits assumed); experiment: as above
Description: as §1

[10] = molecular target: T4, hRANKL (TNF11) (human, UniProt O14788 140-317, limits assumed); experiment: as above
T4 sequence (looked up): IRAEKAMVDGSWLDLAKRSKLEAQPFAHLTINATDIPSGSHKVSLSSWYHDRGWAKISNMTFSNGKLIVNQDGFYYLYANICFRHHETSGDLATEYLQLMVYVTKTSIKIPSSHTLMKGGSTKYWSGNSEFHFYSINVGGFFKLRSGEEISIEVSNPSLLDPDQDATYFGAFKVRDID
Description: as §1

[11] = molecular target: T5, recombinant mouse CD40L (mouse, UniProt P27548 112-260, limits assumed); experiment: SPR (ProteOn), immobilised recombinant mouse CD40L 3000-4000 RU; member of the lead panel
T5 construct: also called mouse CD40L (R&D NSO)
T5 sequence (looked up): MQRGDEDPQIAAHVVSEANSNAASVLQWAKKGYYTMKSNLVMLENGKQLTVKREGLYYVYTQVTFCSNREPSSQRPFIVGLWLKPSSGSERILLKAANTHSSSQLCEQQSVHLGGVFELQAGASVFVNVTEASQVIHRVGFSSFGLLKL
Procedure: To assess binding to mouse CD40L (UniProt accession number: P27548), ProteOn GLC Sensor Chips were coated with 3000-4000 RU of recombinant mouse CD40L (R&D NSO) in 10 mM acetate buffer pH5.5. Purified monovalent anti-CD40L Nanobodies in ProteOn running buffer: PBS/Tween (phosphate buffered saline, pH 7.4 with 0.005% Tween 20) were flown over the sensor chips at 100 nM. Processed curves were used for off-rate analysis based on the Langmuir dissociation model.

[12] = molecular target: T3, recombinant human CD40L; experiment: SPR off-rate (ProteOn, 37 °C), immobilised recombinant human CD40L
Procedure: All off-rates were determined on a ProteOn XPR36 instrument (Bio-Rad Laboratories, Inc.). […] 10-fold diluted periplasmic extracts of anti-CD40L Nanobodies expressing E. coli clones in running buffer ProteOn PBS/Tween (phosphate buffered saline, pH7.4 with 0.005% Tween 20) were flown over the sensor chips. Purified monovalent anti-CD40L Nanobodies were flown over the sensor chips at 100 nM. […] Data obtained was double referenced by Interspot subtraction as well as subtraction of a blank buffer injection. Processed curves were used for off-rate analysis based on the Langmuir dissociation model.
Affinity maturation was performed by screening error prone libraries generated from each parental Nanobody clone. In this approach, amino acid substitutions result from random introduction of mutations in the Nanobody encoding DNA via an error prone PCR. As a consequence, amino acid substitutions are found both in the CDRs and in the Framework Regions (FRs). 5 rounds of phage display selections were performed in solution using decreasing concentrations of recombinant CD40L (from 50 nM to 0.05 pM). Following phage display, individual Nanobodies were sequenced and off-rates were determined by SPR analysis (cf. Example 6.1.3).

Chain of HVEM-L (TNF14) (O43557 74-240 limits assumed): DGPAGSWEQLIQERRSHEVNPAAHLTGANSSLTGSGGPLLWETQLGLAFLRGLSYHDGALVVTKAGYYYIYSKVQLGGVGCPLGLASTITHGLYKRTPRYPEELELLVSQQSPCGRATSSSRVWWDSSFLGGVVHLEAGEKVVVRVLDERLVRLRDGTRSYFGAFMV
Chain of human TNFα (P01375 77-233 limits assumed): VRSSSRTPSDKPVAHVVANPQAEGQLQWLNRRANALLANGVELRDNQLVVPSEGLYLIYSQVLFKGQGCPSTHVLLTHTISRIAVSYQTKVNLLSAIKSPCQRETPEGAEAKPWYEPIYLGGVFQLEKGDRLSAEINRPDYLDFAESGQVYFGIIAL

B1: C0100028B02 (VHH)
VHH: EVQLVESGGGLVQPGGSLRLSCAASGFTLEYYAIGWFRQAPGKEREGVSCISSEGSTSYTDSVKGRFTISRDNAKNTVYLQMNSLKPEDTAVYYCATDPDRGFLGSSCDTQSHQYDYWGQGTLVTVSS
notes: Monovalent Nanobody produced in P. pastoris (pAX205); Detected with anti-FLAG reagents, but the tag of the monovalent form is not spelled out; also called C01000028B02
IC50 (M), B-cell proliferation assay, +HSA [2]: 2.81e-09 M
Average IC50 (M), B-cell proliferation assay [3]: 1.15e-09 M
binding result [4]: no binding
% block (maximum observed effect) [5]: 75%
IC50 [5]: 4.7 nM
% block (maximum observed effect) [6]: 71%
IC50 [6]: 4.43 nM
% block (maximum observed effect) [7]: 72%
IC50 [7]: 4.55 nM
binding result [8]: no binding (tested: competitor from a 100-fold excess)
binding result [9]: no binding (tested: competitor from a 100-fold excess)
binding result [10]: no binding (tested: competitor from a 100-fold excess)
binding result [11]: no binding (tested: 100 nM)

B3: C0100028B02 D101G (VHH, name in Kabat numbering)
VHH: EVQLVESGGGLVQPGGSLRLSCAASGFTLEYYAIGWFRQAPGKEREGVSCISSEGSTSYTDSVKGRFTISRDNAKNTVYLQMNSLKPEDTAVYYCATDPDRGFLGSSCDTQSHQYGYWGQGTLVTVSS
fold improved off-rate over parental C0100028B02 [12]: 1.3 fold

B4: C0100028B02 Y102F (VHH, name in Kabat numbering)
VHH: EVQLVESGGGLVQPGGSLRLSCAASGFTLEYYAIGWFRQAPGKEREGVSCISSEGSTSYTDSVKGRFTISRDNAKNTVYLQMNSLKPEDTAVYYCATDPDRGFLGSSCDTQSHQYDFWGQGTLVTVSS
fold improved off-rate over parental C0100028B02 [12]: 1.8 fold

B5: C0100046B03 (VHH)
VHH: EVQLVESGGGLVQAGGSLRLSCAASGRTPLNYHMAWFRQAPGKEREFVAAISSLLGSTDYSDSLKDRFTISRDNAKATLYLRMNNLKPEDTAVYYCAARETTHYSTSDRVNEMRHYDYWGQGTLVTVSS
notes: Monovalent Nanobody; tag of the monovalent form not spelled out; also called C01000046B03
IC50 (M), B-cell proliferation assay, +HSA [2]: 2.38e-09 M
Average IC50 (M), B-cell proliferation assay [3]: 2.18e-09 M
binding result [4]: no binding
% block (maximum observed effect) [5]: 97%
IC50 [5]: 22.7 nM
% block (maximum observed effect) [6]: 96%
IC50 [6]: 15.3 nM
% block (maximum observed effect) [7]: 100%
IC50 [7]: 28.2 nM
binding result [8]: no binding (tested: competitor from a 100-fold excess)
binding result [9]: no binding (tested: competitor from a 100-fold excess)
binding result [10]: no binding (tested: competitor from a 100-fold excess)
binding result [11]: no binding (tested: 100 nM)

B6: C0100046B03 H100kA (VHH, name in Kabat numbering)
VHH: EVQLVESGGGLVQAGGSLRLSCAASGRTPLNYHMAWFRQAPGKEREFVAAISSLLGSTDYSDSLKDRFTISRDNAKATLYLRMNNLKPEDTAVYYCAARETTHYSTSDRVNEMRAYDYWGQGTLVTVSS
fold improved off-rate over parental C0100046B03 [12]: ~2 fold

B9: C0100046B03 H100kN (VHH, name in Kabat numbering)
VHH: EVQLVESGGGLVQAGGSLRLSCAASGRTPLNYHMAWFRQAPGKEREFVAAISSLLGSTDYSDSLKDRFTISRDNAKATLYLRMNNLKPEDTAVYYCAARETTHYSTSDRVNEMRNYDYWGQGTLVTVSS
notes: single mutation
fold improved off-rate over parental C0100046B03 [12]: 2.6 fold

More lines, main results first:

IC50 (pM), B-cell activation [1]: 101 pM
IC50 (pM), B-cell proliferation [1]: 864 pM
Molecule: CDP7657 (non-pegylated) (Fab)

fold improved off-rate over parental C0100028B02 [12]: 1.3 fold
B2: C0100028B02 L100aF (VHH, name in Kabat numbering)
VHH: EVQLVESGGGLVQPGGSLRLSCAASGFTLEYYAIGWFRQAPGKEREGVSCISSEGSTSYTDSVKGRFTISRDNAKNTVYLQMNSLKPEDTAVYYCATDPDRGFFGSSCDTQSHQYDYWGQGTLVTVSS

fold improved off-rate over parental C0100046B03 [12]: 1.5 fold
B7: C0100046B03 Y100I (VHH, name in Kabat numbering)
VHH: EVQLVESGGGLVQAGGSLRLSCAASGRTPLNYHMAWFRQAPGKEREFVAAISSLLGSTDYSDSLKDRFTISRDNAKATLYLRMNNLKPEDTAVYYCAARETTHISTSDRVNEMRHYDYWGQGTLVTVSS

fold improved off-rate over parental C0100046B03 [12]: ~2 fold
B8: C0100046B03 H100kS (VHH, name in Kabat numbering)
VHH: EVQLVESGGGLVQAGGSLRLSCAASGRTPLNYHMAWFRQAPGKEREFVAAISSLLGSTDYSDSLKDRFTISRDNAKATLYLRMNNLKPEDTAVYYCAARETTHYSTSDRVNEMRSYDYWGQGTLVTVSS

IC50 (M), B-cell proliferation assay, +HSA [2]: 1.14e-09 M
Average IC50 (M), B-cell proliferation assay [3]: 9.71e-10 M
binding result [4]: no binding
% block (maximum observed effect) [5]: 79%
IC50 [5]: 5.28 nM
% block (maximum observed effect) [6]: 82%
IC50 [6]: 5.89 nM
% block (maximum observed effect) [7]: 83%
IC50 [7]: 5.41 nM
binding result [11]: no binding (tested: 100 nM)
B10: C0100044B07 (VHH)
VHH: EVQLVESGGGLVQPGGRLRLSCAASGFTLDYYALAWFRQAPGKEREGVSCISSSEGSTDYADYADSVKGRFTISRDTAKNTVYLQMNNLKPEDTAVYYCATDETTFFSGSCTLSAATFGSWGQGTLVTVSS
notes: Monovalent Nanobody; tag of the monovalent form not spelled out; also called C01000044B07
binding result [8]: no binding (tested: competitor from a 100-fold excess)
binding result [9]: no binding (tested: competitor from a 100-fold excess)
binding result [10]: no binding (tested: competitor from a 100-fold excess)
